Here are results for one substance from US20250002576A1.

The target of test [1] is human Claudin 18.2 (human) (UniProt P56856). As to the kind of experiment: flow cytometry, antibody dilution series on hCLDN18.2-expressing MiaPaCa-2 cells. (In flow cytometry, cells or beads pass a laser one at a time.)
For the next test, the target named is lysozyme. Kind of test: non-specific binding ELISA, lysozyme immobilized. For orientation: In an ELISA, binding on a coated surface is turned into a signal by an enzyme label.

The term EC50 denotes the concentration needed to bring the measured effect to its halfway point. High values mean a less potent agent, low ones a more potent agent.

Substance claudiximab (antibody) showed an EC50 in test [1] of 8.63 nM. The same substance displayed a normalized signal (fluorescence intensity normalized to trastuzumab) with lysozyme of 0.9.
